{
  "source": "the DeepSol protein solubility set",
  "data": [
    {"test": "soluble on expression in E. coli; label from the status in PepcDB or PDB records", "values": [
      {"sequence": "MRSFPKAKEAFSEGEKVSFGVHRLHVGDAREVLASFPEASVHLVVTSPPYWTLKRYEDTPGQLGHIEDYEAFLDELDRVWREVFRLLVPGGRLVIVVGDVAVARRRFGRHLVFPLHADIQVRCRKLGFDNLNPIIWHKHTNASLEVEGRGVFLGKPYEPGAIIKTEIEYILMQRKPGGYRKPTQEQREKSRLPKEDFHRFFRQIWDDIPGESTKDHPAPFPLELAERLVRMFSFVGDVVLDPFAGTGTTLIAAARWGRRALGVELVPRYAQLAKERFAREVPGFSLEVLDGATHPRR", "soluble on expression in E. coli": "soluble"},
      {"sequence": "MKSMPTISRIQRIKEYLSKRKLSQRRKVGVLVDGPNMLRKEFNINLKEIREILSEYGDIKIAKVFLNQYATEKLVEAIENQGFEPIVTSGDVDVRMAVEAMELIYNDSIDAVALVTRDADFKAVLMKAMEMGKETIIIGAEPGFSTALKNSADIAIVLNEDEEKEKGDADEEEIIEV", "soluble on expression in E. coli": "not soluble"},
      {"sequence": "MSLKISDVVVELFREAAIYLPEDVKNALEEAYKKESSEISKNTLKAIIENNKIAEETQVPLCQDTGVPIVFLKIGKNINSSEIMKIIEEIKEGVKKATEEVPLRPNVVHPLTRENFKTNVGLNSPFINIEFDESLDREIEIIAFPKGAGSENMSALKMLKPSDGIEGIKNFVLETIANAGGKPCPPIVVGIGIGGTADVALKLAKKALLRKIGERHRDKEIANLEKELLEKINSLGIGAMGLGGDITALDVFIEIAGCHTASLPVGICIQCWADRRAIKRIKLDAKEGGSHHHHHH", "soluble on expression in E. coli": "soluble"},
      {"sequence": "MAHHHHHHMNRGCLLGEYTGRCLGESAHVRSNLICALCCVTRSQIIYIYIYIYFAVVVEEVPIVTCTNIIMSSVVSRREETHFCLRYFRIPSNKKNVFSLLYRQLLFNSLINHCF", "soluble on expression in E. coli": "not soluble"},
      {"sequence": "MQRHERIRFFITEQCRNLDPTYRNYMYPKQILLGDVPLPLLPNSSLTFRVNSAEKICFRIRLSIDDSQEPLNIGIPLSQVESVSIKDHSAKHPEPALLFLLKKGALERFIQVCNPLLGELHTYHGRKRKMLTYLTVILGMDPHLEQPNPVYCRVSLMANKFTFPFGTAKKILLKDLPIMWQEVLDKQYDRRLKTGIHHDRERMAEMDDEAWDWLMSFLNVKWDKCPSGGRWFVRDKDEILQSNEKLHHKMIYWLNQ", "soluble on expression in E. coli": "not soluble"},
      {"sequence": "MSTCATVSRDLDEPLAGTAATARTWLLLEQPGPWGTKALTSSHLDQALGRALEAAAEGTGVRIALIRRPGRHADCGTPAVRQVYAAHTVPGNVWLHGAMTSDPEQLLDLDFTALGMGDPHTFDRLLGGRPHTGDPLALVCTNGKRDRCCALLGRPLAAELAASGVTGAWEVTHLGGHRFAPTLLILPFGYAYGRAEAPHIKEVLQGVREGRVVVEGCRGRSAWERPGQAAELAVRTAAHEYAADALTVVATDGTAPRWEVTVAHADGRLWRVIVAQGASLPPRPESCGSALGSPARMDVVAVRELIPTEIDATSR", "soluble on expression in E. coli": "not soluble"},
      {"sequence": "MSDGFSVDPAELEGFAGVAEGHAGTAGQIKGLVDRADVGDKSWGVVGLFVKSTYTGMLGDLKELFGDLEEGLRGVGERFRATAEDYRGPEEAIQRAFDGIDTGSGGR", "soluble on expression in E. coli": "not soluble"},
      {"sequence": "DNDSAPKEPTGPVTLIFTDIESSTALWAAHPDLMPDAVATHHRLIRSLITRYECYEVKTVGDSFMIASKSPFAAVQLAQELQLCFLRLDWETNAVDESYREFEEQRAEGECEYTPPTASLDPEVYSRLWNGLRVRVGIHTGLCDIRYDEVTKGYDYYGRTSNMAARTESVANGGQVLMTHAAYMSLSGEDRNQLDVTTLGATVLRGVPEPVRMYQLNAVPGRNFAALRLDR", "soluble on expression in E. coli": "soluble"},
      {"sequence": "MDIKACYQNAKALLEGHFLLSSGFHSNYYLQSAKVLEDPKLAEQLALELAKQIQEAHLNIECVCSPAIGGILAGYELARALGVRFIFTERVDNTMALRRGFEVKKNEKILVCEDIITTGKSAMECAKVLEEKGAQIVAFGALANRGICKRAHSHLKAQEGACLPSHLPLFALEDFVFDMHKPSSCPLCATSVAIKPGSRGN", "soluble on expression in E. coli": "not soluble"},
      {"sequence": "MGSDKIHHHHHHMSEKTLYQKLQNIHKKVPYIQKSQQASQYSYAGSSDVLGTIHGLMDEEKLILIPQITNKNTETSQNRKGSTVIFTELMMTMTWVNSDNPDEKLECQWYAQGIDTAGEKGVGKALTYGEKYFLLKFFNVATDDLDPDAFQENVKAQKAPELINDEQKKTLKELFNSMASVTKTPIEKVSKAYLKKVNSDSIEKLQEDTAIGLIELVTNQLNKQTEKAGK", "soluble on expression in E. coli": "not soluble"},
      {"sequence": "MGSDKIHHHHHHMRITEFYVSNFRSLSEVNLKDLGGFNIVVGYNGYGKTNLLSSIFLFVKNLSAGIEKRSIEDRNQEFILLWQGYDVSKPIMIGGKVEFSPEESNKIVGKNQKITLEIINKMRYNNKFVEWNLDTLYINGSPPGEDDLKVAKKLAEYASQAIEYVPIFDQTYFDETLKRMTEMNKSPINLRKYWYDFVNLVAATIPEVKGMEFWDGRRLVLNVYNLPIYIDLAASGFQRVILMLFIIWLSGNKILLIEEPEVNMHPTLQAKIMKLIKNWTDNNILQSFLTTHSPYIVEMAADSYVVMRRVNGNSTAITVKPTPDLRGTISLLNASLSNILFSRIIILTSELAEPSVIVNWLKRLNINVEDNGISIYKVSSDLELQHWLKLKNMLNLDVIFLGLCDKLDMSLKDYCVPLSREVENFYSKQALLEVLRRLGIYPDEKEIRDLGKEENLRWIINVLRKRGIEYEKLRMSIGELITDVDSIEIPKEIEILANKIKSLQATL", "soluble on expression in E. coli": "not soluble"},
      {"sequence": "GPGSMWDVVSRVGKAAYRTAALTGLAAGTEQPPYPCALPLKTVSSDSDVDSMREVLNSAFDASKDMLENNGEHQWQLVDYVDPEEGGDLHLFTRPRVGPFNFVKATLSFMGVSPQNVLDTMHSDNADDRKRYSANLSHFEVLAKPMAGCAIELHKYWAPPPVAGREFVFAAEKKYVESENVYYVHGCSIDYTPQMETSKGFVRAACLWAWKLMPVGDNTLATYVSCMNPRGWTPPFIFGWLKSEIGKELVACRRVLYGETVKVERTTLQGMGLSDEVNNLTDEERKRMSEGEPQPEAS", "soluble on expression in E. coli": "soluble"},
      {"sequence": "MGSDKIHHHHHHMYDAQAVQTLSSCLLRLKEGKGIGTLVSEDEADLPKVMTRLKQFDPSKNGLSINEIVHLANALIGEHMSATTIQNWTKREVRDIIGVPHRGKKYSINQAAIIYLLDDLKHLFSLEETRELLTIVFKNPNIDEDDLISPLDFYLVYTQHAETSGPIELTEKRLRRSLERINAYRPETVHVLQLCLYARRISHLTHEAKQRLQHVLQT", "soluble on expression in E. coli": "not soluble"},
      {"sequence": "MSLQICQGNGEFVHLLENSKGSPESFASAYSQSMRLTNGEFLCYHISTDYKSISFYNFKNASDGRTIIIHLPAKLMHEHHTLVVEEQEGVIVVDVILESSAFLTMRLPLEYIFGIENVLDDNWLSMQSPYDFTVRRPHLLHKVSQDFFVVFLEDGGLLGLRQHNENYLEPLLFNDYSYIQTLTSMFSRKKKQPADRAVACLVIHDKYLVVLTRLCHLKIWDLGSFHLVQEYNLTENFNGTLETIEYESNGNYISTLNDVIVIYLPIGNGVFKFGRLSFTNDGERKPTFNMFSSIDANMKKSTIWSFVDMKLTDPLELNFTSTTFNLIILWKSGSNSKLQILNIKDSSFSDFEWIEASNKSLQNFQTEEISALIQNYDFDKALYKLKSHYSDMTFKEADSLLLANNIVYSENNETQQQQYLANLDTLLRDINNNHSEIASFTIYKNDMILVNTHNLYNHGFYKINSSLENIYFNLSEITEGHHHHHH", "soluble on expression in E. coli": "soluble"},
      {"sequence": "MGSDKIHHHHHHMVCNLAIDAYYGCMADFSHILMTRPDFGDDDREWLHQLVADWQVIADLSFADLLLILQNGEGKYIIAEQCRPSTVMSLRAEDVVGNVVPESLCAELDAAMDSESVFRSSKLRTVGKAKVCNVYAPVRHNGKTLGLVVRETNMATRESNGRYESESISAGKQLYEMIPRGQFPYRNPVMNQRHNARVADGFIVLTVDGIVRYASPNAISCFRRLGSVSTMQGEYLSEIGTKLLHENDPVLETLPLVLSGKAAVDSELDANKAAVSMRSLPLMDANGRVGGIVLCRDVSELRRREKELQTKDATISEIHHRVKNNLQAVSALLRLQARKTKSEEVKKELKEAQRRVQTIAMVHEGLSQTADEIVDYDKVISNLLKMAVDLATMRDQHIDVDFVGKFGMMPAQDATPLSLVLTELITNSVEHGFEGRKEGHITISVGRGGNNLNVVVEDDGTGLADEEHDGMARSSGSGLGTQIINTFVTNDFGGTVHWEPRRGGGTRVVLDMKLCAAQDN", "soluble on expression in E. coli": "not soluble"},
      {"sequence": "MLPVITRFARPALMAIRPVNAMGVLRASSITKRLYHPKVIEHYTHPRNVGSLDKKLPNVGTGLVGAPACGDVMRLQIKVNDSTGVIEDVKFKTFGCGSAIASSSYMTELVQGMTLDDAAKIKNTEIAKELSLPPVKLHCSMLAEDAIKAAIKDYKSKRNTPTMLS", "soluble on expression in E. coli": "not soluble"}
    ]}
  ]
}
